According to PMC10720262 (2023):

Target: PfCSP full length (Plasmodium falciparum (isolate NF54), UniProt P19597)
Experiment: ELISA AUC

Sequence of PfCSP full length (P19597 20-375): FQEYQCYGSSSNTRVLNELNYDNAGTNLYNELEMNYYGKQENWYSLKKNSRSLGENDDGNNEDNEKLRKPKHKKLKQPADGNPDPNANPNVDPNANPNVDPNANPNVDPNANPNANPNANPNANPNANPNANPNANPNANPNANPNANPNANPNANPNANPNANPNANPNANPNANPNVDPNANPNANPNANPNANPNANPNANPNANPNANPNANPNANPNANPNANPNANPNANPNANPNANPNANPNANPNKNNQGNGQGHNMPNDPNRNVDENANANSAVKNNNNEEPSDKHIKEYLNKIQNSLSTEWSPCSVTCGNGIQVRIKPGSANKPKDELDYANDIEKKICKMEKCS

Binder | binding score
CL-509293 (antibody, V domains shown, peptides N-terminally acetylated and C-terminally amidated) VH: QVQLVASGGGVVQPGRSLRLTCAASGFTFSNYGMHWVRQSPGRGLEWVAIIWYDGSNKFYADSVKGRFTISRDNSKNTLYLQMNSLRAEDTAVYYCAKAEQRTNDNYYKYGMDVWGQGTTVTVST VL: not shown | 2.12
CL-444387 (antibody, V domains shown, peptides N-terminally acetylated and C-terminally amidated) VH: QVHLVESGGGVVQPGRSLRLSCVASGFSFSSYGMHWVRQAPGKGLEWVAIIWYDGSYTYYADSVKGRFTISRDNSKNTLYLQMNSLRVEDTAVYYCAKVGLSYNGRTGAFDIWGQGTMVTVSS VL: not shown | 2.3
CL-445457 (antibody, V domains shown, peptides N-terminally acetylated and C-terminally amidated) VH: QVQLVESGGAVVQPGTSLRLSCAASGFTFSNYGIHWVRQAPGKGLQWVALIWYNGNNKFYADSVQGRFTISRDNSKNILYLQINSLSAEDTAVYYCARAFYSDSGNYMDYWGQGALVTVSS VL: DIQMTQSPSSVSASVGDRVTITCRARQDISSRLAWYQQKPGKAPKILIYGASSLQSGVPSRFSASGSGTDFTLTISSLQPEDVASYFCQQANSFPWTFGQGTKVEIK | 2
CL-512374 (antibody, V domains shown, peptides N-terminally acetylated and C-terminally amidated) VH: QVQLVESGGGVVQPGRSLRLSCAASGFTFSSYGMHWVRQAPGKGLEWVAVIWYDGSNKYYADSVKGRFTISRDNSKNTLYLQMNSLRAEDTAVYYCARDGGGTTRSFDLWGRGTLVTVSS VL: QSVLTQPPSVSGAPGQRVTISCTGSSSNIGAGYDVHWYQQLPGTAPKLLIYGNSNRPSGVPDRFSGSKSGTSASLAITGLQAEDEADYYCQSYDSSLSGSMFGGGTKLTVL | 1.17
CL-512459 (antibody, V domains shown, peptides N-terminally acetylated and C-terminally amidated) VH: QVQLVESGGGVVQPGRSLRLSCTASGFTFSDYGMHWVRQAPGKGLEWVSIIWYDGSKKYYADSVQGRFTISRDNSKNTLYLQMSSLRAEDTAVYYCARAYGSGSYYTFNYWGQGTLVTVSS VL: EIVMTQSPATLSVSPGERATLSCRASQSVNSNLAWYQQKPGQAPRLLIYGASTRATGFPARFIGSGSGTDFTLTINSLQSEDFAVYYCQQYNHWWTFGQGTKVEIK | 2.08
CL-513691 (antibody, V domains shown, peptides N-terminally acetylated and C-terminally amidated) VH: QVQLVESGGDVVQTGRSLRLSCAASGFTFSNYGMHWVRQAPDKGLEWVAIIWYDGSNKFYADSVKGRFTISRDNSKNTLYLHIHSLRAEDTAVYYCARDDRGDSAGPYFVYWGQGTLVTVSS VL: EIVMTQSPATLSVSPGERATLSCRASQSVSDNLAWYQQRPGQAPRLLIYGASIRATGIPARFGGSGSGTEFTLTISILQSADFAVYYCQQHDSWPWTFGQGTKVEIK | 2.36
CL-531271 (antibody, V domains shown, peptides N-terminally acetylated and C-terminally amidated) VH: QVQLVESGGGEVQPGRSLRLSCAASGFTFSNYGMHWVRQAPGKGLEWVALIWYDGNNKFYADSVNGRFTISRDNSNNTLYLQMNSLRAEDTGVYYCARSFYYVSGNFFDYWGQGTLVTVSS VL: DIPMTQSPSSVSASVGDRVTITCRASQGISTWLAWYQQKPGKAPKFLIYAASSLQSGVPSRFSGSGSGTDFTLTIYSLQPEDFATYYCQQGNSFPWTFGQGTKVEIK | 2.36
CL-511862 (antibody, V domains shown, peptides N-terminally acetylated and C-terminally amidated) VH: QVQLVESGGGVVQPGKSLRLSCAASGFSFSSSGMHWVRQAPDKGLEWVAIIWYDGSHKFYADSVKGRFTISRDNSDNTLFLQMDSLRAEDTAVYYCVRAYPTSYNGNYDKYGMDVWGQGTTVTVSS VL: DIQMTQSPSTLSASVGDRVTIACRASQSISTWLAWYQQKPGKAPKLLIYKASTLESGVPSRFSGSGSGTEFTLTISSLQPDDFATYYCQQFTFYWTFGQGTKVEIK | 2.53
CL-510082 (antibody, V domains shown, peptides N-terminally acetylated and C-terminally amidated) VH: QVQLVESGGGVVQPGKSLRLSCVASGFTFSNNGMHWIRQAPGKGLEWVAIIWYDGSNKFYADSVKGRFTISRDNSHNTLYLQMNSLRAEDTAVYYCARDRMFGSGTWNYFDPWGQGTLVTVSS VL: EIVLTQSPATLSLSPGERATLSCRASQSVSTYLAWYQQKPGQAPRLLIYDASNRATGIPARFSGSGSGTDFTLTISSLEPEDFAVYYCQQRSYWWTFGQGTKVEIK | 2.38
CL-444592 (antibody, V domains shown, peptides N-terminally acetylated and C-terminally amidated) VH: QVQLVESGGGVVQPGRSLRLSCAASGFTFSSYGMHWVRQAPGKGLEWVAVIWYDGSNKYYADSVKGRFTISRDNSKNTLYLQMNSLRAEDTAVYYCARDGNWNYNYYYGMDVWGQGTTVTVSS VL: DIQLTQSPSFLSASVGDRVTITCWASQGISSYLAWYQQKPGKAPKLLIYAASTLQSGVPSRFSGSGSGTEFTLTISSLQPEDFATYYCQQLNSYPPTFGQGTRLEIK | 1.5
CL-437492 (antibody, V domains shown, peptides N-terminally acetylated and C-terminally amidated) VH: QEQLVESGGGVVQPGNSLRLSCVASGFTFSNHGMHWVRQAPGKGLEWVAIIWYDGSQKFYSDSVKGRFTISRDNSKNTLYLQMNSLRAEDTAIYYCARVDWSGNDWGWFDPWGQGTLVTVSS VL: EIVLTQSPDTLSLSPGERATLSCRASQTLSSRHLAWYQQKPGQAPRLLIYGASSRATGIPDRFSGSGSGTDFTLTINRLEPEDFAVFYCQQYGRLWTFGQGTKVEIK | 2.2
CL-512508 (antibody, V domains shown, peptides N-terminally acetylated and C-terminally amidated) VH: QVQLVESGGGVVQPGTSLRLSCGASGFTFSSYGMHWVRQAPGKGLEWVAIIWYDGNNKYYADSVKGRFTISRDNSKNTLYLQMNSLRAEDTAVYYCAKVGQFSTSSWGAFDIWGQGTMVTVSS VL: EIVLTQSPGTLPLSPGERATLSCRASQSVSSSQLAWYQQKPGQAPRLLIYGASSRATAIPDRFSGSGSGTDFTLTISRLEPEDFAVYYCQQYSRLWTFGQGTKVEIK | 2.01
CL-453181 (antibody, V domains shown, peptides N-terminally acetylated and C-terminally amidated) VH: QVQLVESGGGVVQPGRSLRLSCAASGFTFSYYGMHWVRQAPGKGLEWVSIIWYDGSNKFYADSVKGRFTISRDNSKDTLYLEMNSLRAEDTAVYYCARVEFYNGSGRDFYYGLDVWGQGTTVTVSS VL: EIVMTQSPATLSVSPGEGATLSCRASQSVSSNLAWYQQKPGQAPRLLISGASTRATGVPARFSGSGSGTEFALTISSLQSEDFAVYYCQQYSKLWTFGQGTKVEIK | 2.6
CL-459075 (antibody, V domains shown, peptides N-terminally acetylated and C-terminally amidated) VH: QVQLVASGGGVVQPGRSLRLSCAASGFTFSNYGMHWVRQAPGKGLEWVSIIWYDGSKKYYSDSVKGRFTISRDNSKNTLYLQMNSLRAEDTAVYYCARAYGSGSYSDDYYGMDVWGQGTTVTVSS VL: DIQMTQSPSTLSASVGDRVTITCRASQSISTWLAWCQQKPGKAPKLLIYKASNLESGVPSRFSGSGSGTEFTLTISSLQPDDFATYYCQQYYSYWTFGQGTKVEIK | 2.5
CL-458015 (antibody, V domains shown, peptides N-terminally acetylated and C-terminally amidated) VH: QVHLVESGGGVVQPGRSLRLSCAASGFTFSNYGMHWVRQAPGKGLDWVAIIWYDGSNKFYADSVQGRFTISRDNSKNTLYLQMNSLRAEDTAVYYCAKVQDLLGVPSTLGDHYTTDVWGQGTSVTVSS VL: DIQMTQSPSTLSASVGDRITITCRASQSINDWLAWYQQKAGKAPKLLIYKASSLESGVPSRFSGSGSGTDFTLTISSLQTDDFAIYYCQQYNHYWTFGQGTKVEIK | 2.2
CL-510433 (antibody, V domains shown, peptides N-terminally acetylated and C-terminally amidated) VH: QVQLVESGGGVVQPGRSLRLSCVASGFTFSSYGMHWVRQAPGKGLEWVAVIWYDGSNKYYADSVKGRFTVSRDNSKNTLYLQMNSLRAEDTAVYYCARVYYYGSGSYSPYYYALDVWGHGTTVTVSS VL: EIVMTQSPATLSVSPGERATLSCRASQSISSNLAWYQQKPGQAPRLLIYGASIRATGIPARFSGSGSGTEFTLSISILQSEDFAIYYCQQYNNWWTFGQGTKVEIK | 1.76
CL-447563 (antibody, V domains shown, peptides N-terminally acetylated and C-terminally amidated) VH: QVQLVASGGGVVQPGRSLRLSCAASGFTFSNYGMHWVRQAPGKGLEWVAIIWYDGSKKYYSDSVKGRFTISRDNSKNTLYLQMNSLRAEDTAVYYCARAYGSGSYSDDYYGMDVWGQGTTVTVSS VL: DIQMTQSPSTLSASVGDRVTITCRASQSISTWLAWYQQKPGKAPKLLIYKASNLESGVPSRFSGSGSGTEFTLTISSLQPDDFATYYCQQYYSYWTFGQGTKVEIK | 2.5
CL-449759 (antibody, V domains shown, peptides N-terminally acetylated and C-terminally amidated) VH: QVHLVESGGGVVQPGESQRLSCAASGFTFSNYGMHWVRQAPGKGLEWVALIWYDGSNKFYADSVKGRFTISRDNSKNTLYLHMNSLRAEDTAMYYCAKVPNWNDDKYTMDVWGQGTTVTVTS VL: not shown | 2.4
CL-508758 (antibody, V domains shown, peptides N-terminally acetylated and C-terminally amidated) VH: QVQLVESGGGVVQPGRSLRLSCAASGFTFSNYGMHWVRQTPGRDLEWVAIIWYDGSYKFYADSVKGRFSISRDNSKNTLNLEMKSLRVEDTAVYYCAKAYDTSSDDKYGMDVWGQGTTVTVTS VL: DIQMTQSPSTLSASVGDRVTITCRASQSISIWLAWYQQKPGKAPKLLIYRASDLESGVPSRFSGSGSGTGFTLTISSLQPDDFATYYCQQYNSYWTFGQGTKVEIK | 2.17
CL-512319 (antibody, V domains shown, peptides N-terminally acetylated and C-terminally amidated) VH: QVQLVESGGGVVQPGRSLRLSCAASGFTFSNFGMHWVRQAPGKGLEWVAVIWYDGSHKFYADSLKGRFTISRDNSKNTLYLQMNNLRAEDTAVYYCARAHPVTTDYDKYGMDVWGQGTTVTVSS VL: DIQMTQSPSTLSSSVGDRVTITCRASQSISIWLAWIQQKPGKAPKLLIYKASSLESGVPSRFSGSGSGTEFTLTISSLQPDDFATYYCQQFYSYWTFGLGTKVEIK | 2.08
Ky311 (antibody, V domains shown, peptides N-terminally acetylated and C-terminally amidated) VH: QMHLVESGGGVVQPGRSLRLSCVASGFTFNNHGMHWVRQAPGKGLEWVAVIWHDGSNKFYADSVNGRFIVSRDNSKNTLYLHMNSLRAEDTAVYYCARDFFVSGSYNYFDPWGQGTLVTVSS VL: EIVLTQSPVTLSLSPGERATLSCRASQSVSNYLAWYQQKPGQAPRLLIYDAANRATGTPARFSGSGSGTDFTLTISSLEPEDFAVYFCQQRSKWFTFGPGTKLDIK | 2.22
CL-512191 (antibody, V domains shown, peptides N-terminally acetylated and C-terminally amidated) VH: QVQLVESGGGVVQPGRSLRLSCAASGFTFSNYAMHWVRQAPGKGLEWVAVIWYDGSNKYYADSVKGRFTISRDDSKNTLYLQMNSLRAEDTAVYYCARDKGYRYGFNWFDPWGQGTLVTVSS VL: QSVLTQPPSVSGAPGQRVTISCTGSSSNIGAGYDVHWYQKLPGTAPKLLIFSNSNRPSGVPDRFSGSKSGTSASLAITGLQAEDEADYYCQSYDSSLSGSRVFGGGTKLTVL | 2.31
Ky230 (antibody, V domains shown, peptides N-terminally acetylated and C-terminally amidated) VH: QVQLVESGGGVVQPGRSLRLSCAASGFTFSDYGMHWVRQAPGKGLEWVAIIWHDGSNKYYVDSVKGRFTISRDNSKNTLYLQMNSLRAEDTAVYYCARAASSFGSGFDYWGQGTLVTVSS VL: DVVMTQSPLSLPVTLGQPASIFCRSSQSLVYSDGNTYLNWFQRRPGQSPRRLIYKVSDRDSGVPDRFSGSGSGTDFTLQISRVEAEDVGVYYCMQGTHWPPTFGQGTKVEIK | 2.4
